Values of other authors in PMC3385930.

Legend:
Band 3 (Homo sapiens) = Band 3 (Homo sapiens) (UniProt P02730)
Adducin (Homo sapiens) = Adducin (Homo sapiens) (UniProt P35611)

Chain of UniProt P02730 (P02730 whole entry): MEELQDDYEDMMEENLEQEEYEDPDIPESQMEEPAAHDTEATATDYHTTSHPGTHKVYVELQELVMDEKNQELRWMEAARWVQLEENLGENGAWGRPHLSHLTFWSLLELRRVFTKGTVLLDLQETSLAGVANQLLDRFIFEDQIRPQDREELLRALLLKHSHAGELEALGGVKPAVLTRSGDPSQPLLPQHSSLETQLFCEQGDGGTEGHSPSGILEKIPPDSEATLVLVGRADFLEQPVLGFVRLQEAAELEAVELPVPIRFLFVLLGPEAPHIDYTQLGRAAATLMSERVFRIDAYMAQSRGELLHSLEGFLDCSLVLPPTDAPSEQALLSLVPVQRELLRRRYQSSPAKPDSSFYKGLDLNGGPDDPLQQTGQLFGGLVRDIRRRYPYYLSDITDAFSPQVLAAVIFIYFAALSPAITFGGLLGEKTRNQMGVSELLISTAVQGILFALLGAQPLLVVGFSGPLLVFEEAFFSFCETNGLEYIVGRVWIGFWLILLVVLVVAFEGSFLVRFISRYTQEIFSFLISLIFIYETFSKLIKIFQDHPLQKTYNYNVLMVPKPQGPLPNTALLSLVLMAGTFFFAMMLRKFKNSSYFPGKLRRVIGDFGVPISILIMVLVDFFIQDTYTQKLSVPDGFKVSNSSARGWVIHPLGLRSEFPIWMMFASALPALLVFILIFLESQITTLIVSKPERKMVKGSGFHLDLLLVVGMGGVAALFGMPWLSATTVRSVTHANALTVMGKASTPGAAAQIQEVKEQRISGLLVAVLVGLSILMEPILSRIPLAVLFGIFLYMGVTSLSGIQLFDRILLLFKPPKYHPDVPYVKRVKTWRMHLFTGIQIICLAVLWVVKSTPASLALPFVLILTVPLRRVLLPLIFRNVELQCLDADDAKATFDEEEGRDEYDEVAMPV

| Substance | Kd (Band 3 (Homo sapiens)) | Kd (Adducin (Homo sapiens)) |
| --- | --- | --- |
| Adducin (from UniProt P35611) | 100 nM | – |
| Stomatin (from UniProt P27105) | – | 100 nM |
